Results as given in ChEMBL document CHEMBL2074001, “Competition of hydrophobic peptides, cytotoxic drugs, and chemosensitizers on a common P-glycoprotein pharmacophore as revealed by its ATPase activity” (J Biol Chem, 1996).

Assays:
[1] = system: CC(C)[C@@H]1NC(=O)[C@H](C)OC(=O)[C@@H](C(C)C)NC(=O)[C@@H](C(C)C)OC(=O)[C@H](C(C)C)NC(=O)[C@H](C)OC(=O)[C@@H](C(C)C)NC(=O)[C@@H](C(C)C)OC(=O)[C@H](C(C)C)NC(=O)[C@H](C)OC(=O)[C@@H](C(C)C)NC(=O)[C@@H](C(C)C)OC1=O; assay: (§1) TP_TRANSPORTER: ATP hydrolysis in reconstituted proteoliposomes; format: functional, subcellular
[2] = system: CC[C@H]1CN2CCc3cc(OC)c(OC)cc3[C@@H]2C[C@@H]1C[C@H]1NCCc2cc(OC)c(OC)cc21; assay: as §1; format: functional, subcellular

With “ATP-dependent translocase ABCB1 (Homo sapiens)” the Km [1] was 1 µM and the Km [2] was 6 µM.
